From article PMC8857470, “Molecular insights into the maturation of phosphodiesterase 6 by the specialized chaperone complex of HSP90 with AIPL1” (The Journal of Biological Chemistry, 2022)
Substitutions are numbered along the chain they refer to. Numbers in names are those of the source.

B1: AIPL1-K265A (natural protein)
chain: MDVSLLLNVEGVKKTILHGGTGELPSFITGSRVTFHFRTMKCDDERTVIDDSKQVGQPMSIIIGNMFKLEVWETLLTSMRLGEVAEFWCDTIHTGVYPMLSRSLRQVAEGKDPTSWHVHTCGLANMFAYHTLGYEDLDELQKEPQPLVFLIELLQVEAPNEYQRETWNLNNEERMQAVPLLHGEGNRLYKLGRYDQAATKYQEAIVCLRNLQTKEKPWEVEWLKLEKMINTLILNYCQCLLKKEEYYEVLEHTSDILRHHPGIVAAYYMRARAHAEVWNAEEAKADLEKVLELEPSMRKAVLRELRLLESRLADKQEEERQRCRSMLG
B2: AIPL1-K265W (natural protein)
chain: B1 chain with A265W

Biological target: Avi-tagged HSP90β (full-length human HSP90β, residues 1–724) (human) (UniProt P08238)
Sequence (P08238 whole entry, the tested form may be a part): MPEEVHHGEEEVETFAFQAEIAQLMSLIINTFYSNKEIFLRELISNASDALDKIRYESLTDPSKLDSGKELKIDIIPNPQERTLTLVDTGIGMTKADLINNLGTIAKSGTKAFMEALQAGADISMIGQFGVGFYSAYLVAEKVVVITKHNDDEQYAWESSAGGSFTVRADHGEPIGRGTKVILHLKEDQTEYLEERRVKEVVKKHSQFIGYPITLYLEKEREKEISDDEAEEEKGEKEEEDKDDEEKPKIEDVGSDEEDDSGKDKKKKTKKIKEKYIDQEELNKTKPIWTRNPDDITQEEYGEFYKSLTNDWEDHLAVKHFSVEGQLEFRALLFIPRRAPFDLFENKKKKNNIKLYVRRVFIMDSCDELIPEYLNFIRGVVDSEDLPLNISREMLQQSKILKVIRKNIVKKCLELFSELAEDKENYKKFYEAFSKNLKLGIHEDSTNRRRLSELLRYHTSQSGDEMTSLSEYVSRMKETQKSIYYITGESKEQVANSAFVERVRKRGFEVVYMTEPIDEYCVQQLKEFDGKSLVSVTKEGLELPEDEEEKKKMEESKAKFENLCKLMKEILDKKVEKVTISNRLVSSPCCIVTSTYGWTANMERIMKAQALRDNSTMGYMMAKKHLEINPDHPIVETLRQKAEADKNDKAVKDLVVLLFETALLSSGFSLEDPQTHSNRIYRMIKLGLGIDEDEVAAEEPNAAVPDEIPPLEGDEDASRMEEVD

| cGMP hydrolysis (PDE6 activity) in lysates of HEK293T cells cotransfected with PDE6C, Pγ and the AIPL1 mutant (nmol•min^−1• mg^−1) | Binder |
| --- | --- |
| 8.8 | B1 |
| 3 | B2 |
